Reference: PMC5681435, “Differential Regulation of G1 CDK Complexes by the Hsp90-Cdc37 Chaperone System” (Cell Reports, 2017)
Substitutions are numbered along the chain they refer to. Names and notes keep the numbering of the source.

T1: biotinylated C-terminally Avi-tagged Cdc37 (human, UniProt Q16543 1-378, biotin (on the Avi tag))
T1 construct: not shown: Avi tag, C-terminal, kept
T1 sequence (looked up): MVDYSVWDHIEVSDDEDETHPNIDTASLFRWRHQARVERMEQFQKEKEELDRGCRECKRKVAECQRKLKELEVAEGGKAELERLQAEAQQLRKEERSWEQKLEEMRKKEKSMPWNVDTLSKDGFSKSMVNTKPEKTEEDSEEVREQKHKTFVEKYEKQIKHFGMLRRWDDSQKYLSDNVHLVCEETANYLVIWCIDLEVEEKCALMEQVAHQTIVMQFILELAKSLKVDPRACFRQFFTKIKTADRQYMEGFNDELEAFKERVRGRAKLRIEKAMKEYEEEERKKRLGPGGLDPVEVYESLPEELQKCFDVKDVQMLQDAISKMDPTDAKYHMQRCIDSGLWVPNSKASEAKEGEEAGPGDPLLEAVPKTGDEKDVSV

B1: Vcyclin (Avi-tagged, for direct HTRF) (natural protein)
chain: MADSPNRLNRAKIDSTTMKDPRVLNNLKLRELLLPKFTSLWEIQTEVTVDNRTILLTWMHLLCESFELDKSVFPLSVSILDRYLCKKQGTKKTLQKIGAACVLIGSKIRTVKPMTVSKLTYLSCDCFTNLELINQEKDILEALKWDTEAVLATDFLIPLCNALKIPEDLWPQLYEAASTTICKALIQPNIALLSPGLICAGGLLTTIETDNTNCRPWTCYLEDLSSILNFSTNTVRTVKDQVSEAFSLYDLEIL
modifications: biotin (on the Avi tag)
notes: also called viral D-type cyclin from Herpesvirus saimiri; source: purified
B2: GSTCDK4 (enzyme, human, UniProt P11802 1-303, looked up)
chain: MATSRYEPVAEIGVGAYGTVYKARDPHSGHFVALKSVRVPNGGGGGGGLPISTVREVALLRRLEAFEHPNVVRLMDVCATSRTDREIKVTLVFEHVDQDLRTYLDKAPPPGLPAETIKDLMRQFLRGLDFLHANCIVHRDLKPENILVTSGGTVKLADFGLARIYSYQMALTPVVVTLWYRAPEVLLQSTYATPVDMWSVGCIFAEMFRRKPLFCGNSEADQLGKIFDLIGLPPEDDWPRDVSLPRGAFPPRGPRPVQSVVPEMEESGAQLLLEMLTFNPHKRISAFRALQHSYLHKDEGNPE
notes: also called GST-tagged CDK4
B3: Avi-tagged Kcyclin (natural protein)
chain: MATANNPPSGLLDPTLCEDRIFYNILEIEPRFLTSDSVFGTFQQSLTSHMRKLLGTWMFSVCQEYNLEPNVVALALNLLDRLLLIKQVSKEHFQKTGSACLLVASKLRSLTPISTSSLCYAAADSFSRQELIDQEKELLEKLAWRTEAVLATDVTSFLLLKLLGGSQHLDFWHHEVNTLITKALVDPKTGSLPASIISAAGCALLVPANVIPQDTHSGGVVPQLASILGCDVSVLQAAVEQILTSVSDFDLRILDSY
modifications: biotin (on the Avi tag)
notes: also called viral D-type cyclin from Kaposi's sarcoma-associated herpesvirus; source: purified
B4: untagged p16INK4a (natural protein, UniProt P42771 1-156, looked up)
chain: MEPAAGSSMEPSADWLATAAARGRVEEVRALLEAGALPNAPNSYGRRPIQVMMMGSARVAELLLLHGAEPNCADPATLTRPVHDAAREGFLDTLVVLHRAGARLDVRDAWGRLPVDLAEELGHRDVARYLRAAAGGTRGSNHARIDAAEGPSDIPD
notes: also called wild-type p16INK4a; authentic p16INK4a
B5: p16D108N (natural protein, UniProt P42771 1-156, looked up)
chain: B4 chain with D108N
notes: also called p16INK4a D108N
B6: p16M53I (natural protein, UniProt P42771 1-156, looked up)
chain: B4 chain with M53I
notes: also called p16INK4a M53I
B7: p16M53E (natural protein, UniProt P42771 1-156, looked up)
chain: B4 chain with M53E
notes: also called p16INK4a M53E
B8: p16D84N (natural protein, UniProt P42771 1-156, looked up)
chain: B4 chain with D84N
notes: also called p16INK4a D84N

What was measured:
Details in all cases: both partners purified
GSTCDK4 [1] = target: B2; test: AlphaScreen or HTRF; direct binding: GST-fused CDK (10 nM) and biotinylated Avi-tagged partner titrated; terbium-conjugated anti-GST antibody and streptavidin-XL665
GSTCDK6 [2] = target: T2, GSTCDK6 (human, UniProt Q00534 1-326); test: as above
T2 construct: also called GST-tagged CDK6

[3] = target: T1, biotinylated C-terminally Avi-tagged …; test: as above
GSTCDK4 [4] = target: B2; test: SPR
GSTCDK6 [5] = target: T2, GSTCDK6; test: SPR
GSTCDK4 [6] = target: B2; test: SPR; remark: listed apart in the source
GSTCDK6 [7] = target: T2, GSTCDK6; test: SPR; remark: listed apart in the source

T2 sequence (Q00534 whole entry): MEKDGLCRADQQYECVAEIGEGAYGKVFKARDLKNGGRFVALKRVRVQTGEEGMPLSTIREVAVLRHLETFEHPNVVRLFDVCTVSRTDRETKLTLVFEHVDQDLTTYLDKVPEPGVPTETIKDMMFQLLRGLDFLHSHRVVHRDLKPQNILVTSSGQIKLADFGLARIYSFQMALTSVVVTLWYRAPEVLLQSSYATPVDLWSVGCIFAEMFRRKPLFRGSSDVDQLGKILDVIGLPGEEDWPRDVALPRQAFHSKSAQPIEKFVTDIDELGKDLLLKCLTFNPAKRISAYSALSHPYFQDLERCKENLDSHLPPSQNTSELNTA

## B1
GSTCDK4 [1]
  Kd: 151 nM
GSTCDK6 [2]
  Kd: 14.9 nM

## B2
[3]
  Kd: 92 nM

## B3
GSTCDK4 [1]
  Kd: 24.9 nM
GSTCDK6 [2]
  Kd: 10 nM

## B4
GSTCDK4 [4]
  Kd: 0.87 nM
GSTCDK6 [5]
  Kd: 0.26 nM

## B5
GSTCDK4 [4]
  Kd: 2.56 nM
GSTCDK6 [5]
  Kd: 0.28 nM

## B6
GSTCDK4 [6]
  fold reduction in the strength of the interaction against wild-type p16INK4a: > 1e+06 fold
GSTCDK6 [7]
  fold higher rate of dissociation against wild-type p16INK4a: ~10 fold
GSTCDK6 [5]
  Kd: 0.73 nM

## B7
GSTCDK4 [6]
  binding result: binds
GSTCDK6 [5]
  Kd: 1.56 nM

## B8
GSTCDK4 [6]
  binding result: binds
GSTCDK6 [5]
  Kd: 59.7 nM
